In data set [1] the target is APE1 (apurinic/apyrimidinic endonuclease 1) (human, UniProt P27695 1-318). Kind of data set: EMSA. In general terms: In EMSA bound probe runs differently from free probe, usually more slowly.
The target in a further data set is T1, ISY1 (human, UniProt Q9ULR0 1-285).
T1 sequence: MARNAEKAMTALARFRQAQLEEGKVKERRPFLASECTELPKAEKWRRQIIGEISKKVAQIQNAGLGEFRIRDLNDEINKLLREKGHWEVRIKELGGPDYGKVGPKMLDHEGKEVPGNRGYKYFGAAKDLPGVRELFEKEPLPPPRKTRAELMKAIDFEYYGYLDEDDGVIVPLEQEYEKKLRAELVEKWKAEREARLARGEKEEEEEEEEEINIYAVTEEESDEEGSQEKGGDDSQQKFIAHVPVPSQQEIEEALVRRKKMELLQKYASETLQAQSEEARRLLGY
Kind of data set: EMSA.

Chain of APE1 (apurinic/apyrimidinic endonuclease 1) (P27695 whole entry): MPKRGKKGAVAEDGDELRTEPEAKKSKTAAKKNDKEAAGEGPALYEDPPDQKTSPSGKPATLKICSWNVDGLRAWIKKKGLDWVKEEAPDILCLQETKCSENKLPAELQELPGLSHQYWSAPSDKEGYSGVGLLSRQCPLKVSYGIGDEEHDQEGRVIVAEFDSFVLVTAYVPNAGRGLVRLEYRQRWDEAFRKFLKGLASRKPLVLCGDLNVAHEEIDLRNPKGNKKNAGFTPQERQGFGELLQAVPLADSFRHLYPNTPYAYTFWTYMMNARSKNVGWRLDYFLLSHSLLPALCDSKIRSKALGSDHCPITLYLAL

B1: 37-mer control DNA duplex (no AP site) (dsDNA)
DNA 1: CCTGCAGCTGGTGCAAAAGTATTGCGGCGTGTACGGT
DNA 2: ACCGTACACGTTTCCTTACGGGGTCACCAGCTGCAGG
On to B1, for which the binding result (in data set [1]; with ISY1) was “no binding” each time.

Source of the values: paper PMC7185567.
